According to US20260001928A1 (CORTERIA PHARMACEUTICALS, priority 2022, published 2026):
*1 amine or outer side, *2 acyl side, *3 side chain or, on linkers, in order; H or OH if unused. Primed or numbered codes have the meaning given here. Where no end group is shown, it is not given here. Side-chain parts run from the residue outwards. [ ]: non-standard residue; d: D form. The star is where a group is joined. Thp′ = 4-amino-tetrahydro-2H-pyran-4-yl-acetic acid, O=C(CC1(N[*:1])CCOCC1)[*:2]; C18 diacid = O=C(O)CCCCCCCCCCCCCCCCC(=O)*; C16 diacid = O=C(O)CCCCCCCCCCCCCCC(=O)*; γGlu = O=C(O)[C@H](CCC(=O)[*:2])N[*:1]; Thp″ = not defined here; AEEA = NCCOCCOCC(=O)O

T1: CRF1R receptor (UniProt P34998 24-415, limits assumed)
T1 sequence (looked up): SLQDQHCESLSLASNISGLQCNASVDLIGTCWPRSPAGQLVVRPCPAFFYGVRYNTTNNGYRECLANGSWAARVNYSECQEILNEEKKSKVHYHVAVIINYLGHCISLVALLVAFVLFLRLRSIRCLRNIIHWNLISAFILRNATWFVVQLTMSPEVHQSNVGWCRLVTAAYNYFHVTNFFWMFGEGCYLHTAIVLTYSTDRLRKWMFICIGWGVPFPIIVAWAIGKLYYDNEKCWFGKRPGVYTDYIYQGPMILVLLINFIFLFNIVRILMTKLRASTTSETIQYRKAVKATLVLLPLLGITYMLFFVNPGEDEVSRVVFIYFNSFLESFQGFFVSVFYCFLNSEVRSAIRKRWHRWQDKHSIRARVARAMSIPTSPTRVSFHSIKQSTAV

B1: SEQ ID NO 14 (peptide)
peptide: IVLSLD[dV]PIKLK([γGlu-C16 diacid])QILLKQERQKKQREQAEKNTQILEQV-NH2
modifications: N-terminus assumed
SMILES: CC[C@H](C)[C@H](N)C(=O)N[C@H](C(=O)N[C@@H](CC(C)C)C(=O)N[C@@H](CO)C(=O)N[C@@H](CC(C)C)C(=O)N[C@@H](CC(=O)O)C(=O)N[C@@H](C(=O)N1CCC[C@H]1C(=O)N[C@H](C(=O)N[C@@H](CCCCN)C(=O)N[C@@H](CC(C)C)C(=O)N[C@@H](CCCCNC(=O)CC[C@H](NC(=O)CCCCCCCCCCCCCCC(=O)O)C(=O)O)C(=O)N[C@@H](CCC(N)=O)C(=O)N[C@H](C(=O)N[C@@H](CC(C)C)C(=O)N[C@@H](CC(C)C)C(=O)N[C@@H](CCCCN)C(=O)N[C@@H](CCC(N)=O)C(=O)N[C@@H](CCC(=O)O)C(=O)N[C@@H](CCCNC(=N)N)C(=O)N[C@@H](CCC(N)=O)C(=O)N[C@@H](CCCCN)C(=O)N[C@@H](CCCCN)C(=O)N[C@@H](CCC(N)=O)C(=O)N[C@@H](CCCNC(=N)N)C(=O)N[C@@H](CCC(=O)O)C(=O)N[C@@H](CCC(N)=O)C(=O)N[C@@H](C)C(=O)N[C@@H](CCC(=O)O)C(=O)N[C@@H](CCCCN)C(=O)N[C@@H](CC(N)=O)C(=O)N[C@H](C(=O)N[C@@H](CCC(N)=O)C(=O)N[C@H](C(=O)N[C@@H](CC(C)C)C(=O)N[C@@H](CCC(=O)O)C(=O)N[C@@H](CCC(N)=O)C(=O)N[C@H](C(N)=O)C(C)C)[C@@H](C)CC)[C@@H](C)O)[C@@H](C)CC)[C@@H](C)CC)C(C)C)C(C)C
B2: SEQ ID NO 13 (peptide)
peptide: IVLSLD[dV]PIKLK([γGlu-C16 diacid])QILLKQERQKKQREQAEKNVQILEQV-NH2
modifications: N-terminus assumed
SMILES: CC[C@H](C)[C@H](N)C(=O)N[C@H](C(=O)N[C@@H](CC(C)C)C(=O)N[C@@H](CO)C(=O)N[C@@H](CC(C)C)C(=O)N[C@@H](CC(=O)O)C(=O)N[C@@H](C(=O)N1CCC[C@H]1C(=O)N[C@H](C(=O)N[C@@H](CCCCN)C(=O)N[C@@H](CC(C)C)C(=O)N[C@@H](CCCCNC(=O)CC[C@H](NC(=O)CCCCCCCCCCCCCCC(=O)O)C(=O)O)C(=O)N[C@@H](CCC(N)=O)C(=O)N[C@H](C(=O)N[C@@H](CC(C)C)C(=O)N[C@@H](CC(C)C)C(=O)N[C@@H](CCCCN)C(=O)N[C@@H](CCC(N)=O)C(=O)N[C@@H](CCC(=O)O)C(=O)N[C@@H](CCCNC(=N)N)C(=O)N[C@@H](CCC(N)=O)C(=O)N[C@@H](CCCCN)C(=O)N[C@@H](CCCCN)C(=O)N[C@@H](CCC(N)=O)C(=O)N[C@@H](CCCNC(=N)N)C(=O)N[C@@H](CCC(=O)O)C(=O)N[C@@H](CCC(N)=O)C(=O)N[C@@H](C)C(=O)N[C@@H](CCC(=O)O)C(=O)N[C@@H](CCCCN)C(=O)N[C@@H](CC(N)=O)C(=O)N[C@H](C(=O)N[C@@H](CCC(N)=O)C(=O)N[C@H](C(=O)N[C@@H](CC(C)C)C(=O)N[C@@H](CCC(=O)O)C(=O)N[C@@H](CCC(N)=O)C(=O)N[C@H](C(N)=O)C(C)C)[C@@H](C)CC)C(C)C)[C@@H](C)CC)[C@@H](C)CC)C(C)C)C(C)C
B3: SEQ ID NO 199 (peptide)
peptide: Ac-IVLSLD[dV]PIKLK([γGlu-C18 diacid])KILLEQEKQKKQREQAETN[Thp′]QILAQV-NH2
SMILES: CC[C@H](C)[C@H](NC(C)=O)C(=O)N[C@H](C(=O)N[C@@H](CC(C)C)C(=O)N[C@@H](CO)C(=O)N[C@@H](CC(C)C)C(=O)N[C@@H](CC(=O)O)C(=O)N[C@@H](C(=O)N1CCC[C@H]1C(=O)N[C@H](C(=O)N[C@@H](CCCCN)C(=O)N[C@@H](CC(C)C)C(=O)N[C@@H](CCCCNC(=O)CC[C@H](NC(=O)CCCCCCCCCCCCCCCCC(=O)O)C(=O)O)C(=O)N[C@@H](CCCCN)C(=O)N[C@H](C(=O)N[C@@H](CC(C)C)C(=O)N[C@@H](CC(C)C)C(=O)N[C@@H](CCC(=O)O)C(=O)N[C@@H](CCC(N)=O)C(=O)N[C@@H](CCC(=O)O)C(=O)N[C@@H](CCCCN)C(=O)N[C@@H](CCC(N)=O)C(=O)N[C@@H](CCCCN)C(=O)N[C@@H](CCCCN)C(=O)N[C@@H](CCC(N)=O)C(=O)N[C@@H](CCCNC(=N)N)C(=O)N[C@@H](CCC(=O)O)C(=O)N[C@@H](CCC(N)=O)C(=O)N[C@@H](C)C(=O)N[C@@H](CCC(=O)O)C(=O)N[C@H](C(=O)N[C@@H](CC(N)=O)C(=O)NC1(CC(=O)N[C@@H](CCC(N)=O)C(=O)N[C@H](C(=O)N[C@@H](CC(C)C)C(=O)N[C@@H](C)C(=O)N[C@@H](CCC(N)=O)C(=O)N[C@H](C(N)=O)C(C)C)[C@@H](C)CC)CCOCC1)[C@@H](C)O)[C@@H](C)CC)[C@@H](C)CC)C(C)C)C(C)C
B4: SEQ ID NO 34 (peptide)
peptide: VLSLD[dV]PIKLK([γGlu-C16 diacid])KILLEQEKQKKQREQAETNKQILAQV-NH2
modifications: N-terminus assumed
SMILES: CC[C@H](C)[C@H](NC(=O)[C@H](CCC(N)=O)NC(=O)[C@H](CCCCN)NC(=O)[C@H](CC(N)=O)NC(=O)[C@@H](NC(=O)[C@H](CCC(=O)O)NC(=O)[C@H](C)NC(=O)[C@H](CCC(N)=O)NC(=O)[C@H](CCC(=O)O)NC(=O)[C@H](CCCNC(=N)N)NC(=O)[C@H](CCC(N)=O)NC(=O)[C@H](CCCCN)NC(=O)[C@H](CCCCN)NC(=O)[C@H](CCC(N)=O)NC(=O)[C@H](CCCCN)NC(=O)[C@H](CCC(=O)O)NC(=O)[C@H](CCC(N)=O)NC(=O)[C@H](CCC(=O)O)NC(=O)[C@H](CC(C)C)NC(=O)[C@H](CC(C)C)NC(=O)[C@@H](NC(=O)[C@H](CCCCN)NC(=O)[C@H](CCCCNC(=O)CC[C@H](NC(=O)CCCCCCCCCCCCCCC(=O)O)C(=O)O)NC(=O)[C@H](CC(C)C)NC(=O)[C@H](CCCCN)NC(=O)[C@@H](NC(=O)[C@@H]1CCCN1C(=O)[C@H](NC(=O)[C@H](CC(=O)O)NC(=O)[C@H](CC(C)C)NC(=O)[C@H](CO)NC(=O)[C@H](CC(C)C)NC(=O)[C@@H](N)C(C)C)C(C)C)[C@@H](C)CC)[C@@H](C)CC)[C@@H](C)O)C(=O)N[C@@H](CC(C)C)C(=O)N[C@@H](C)C(=O)N[C@@H](CCC(N)=O)C(=O)N[C@H](C(N)=O)C(C)C
B5: SEQ ID NO 147 (peptide)
peptide: IVLSLD[dV]PIKLK([γGlu-γGlu-C16 diacid])QILLKQERQKKQREQAEKNKQILEQV-NH2
modifications: N-terminus assumed
SMILES: CC[C@H](C)[C@H](N)C(=O)N[C@H](C(=O)N[C@@H](CC(C)C)C(=O)N[C@@H](CO)C(=O)N[C@@H](CC(C)C)C(=O)N[C@@H](CC(=O)O)C(=O)N[C@@H](C(=O)N1CCC[C@H]1C(=O)N[C@H](C(=O)N[C@@H](CCCCN)C(=O)N[C@@H](CC(C)C)C(=O)N[C@@H](CCCCNC(=O)CC[C@H](NC(=O)CC[C@H](NC(=O)CCCCCCCCCCCCCCC(=O)O)C(=O)O)C(=O)O)C(=O)N[C@@H](CCC(N)=O)C(=O)N[C@H](C(=O)N[C@@H](CC(C)C)C(=O)N[C@@H](CC(C)C)C(=O)N[C@@H](CCCCN)C(=O)N[C@@H](CCC(N)=O)C(=O)N[C@@H](CCC(=O)O)C(=O)N[C@@H](CCCNC(=N)N)C(=O)N[C@@H](CCC(N)=O)C(=O)N[C@@H](CCCCN)C(=O)N[C@@H](CCCCN)C(=O)N[C@@H](CCC(N)=O)C(=O)N[C@@H](CCCNC(=N)N)C(=O)N[C@@H](CCC(=O)O)C(=O)N[C@@H](CCC(N)=O)C(=O)N[C@@H](C)C(=O)N[C@@H](CCC(=O)O)C(=O)N[C@@H](CCCCN)C(=O)N[C@@H](CC(N)=O)C(=O)N[C@@H](CCCCN)C(=O)N[C@@H](CCC(N)=O)C(=O)N[C@H](C(=O)N[C@@H](CC(C)C)C(=O)N[C@@H](CCC(=O)O)C(=O)N[C@@H](CCC(N)=O)C(=O)N[C@H](C(N)=O)C(C)C)[C@@H](C)CC)[C@@H](C)CC)[C@@H](C)CC)C(C)C)C(C)C
B6: SEQ ID NO 150 (peptide)
peptide: H-IVLSLD[dV]PIKLK([AEEA-AEEA-γGlu-C18 diacid])QILLKQERQKKQREQAEKNKQILEQV-NH2
SMILES: CC[C@H](C)[C@H](N)C(=O)N[C@H](C(=O)N[C@@H](CC(C)C)C(=O)N[C@@H](CO)C(=O)N[C@@H](CC(C)C)C(=O)N[C@@H](CC(=O)O)C(=O)N[C@@H](C(=O)N1CCC[C@H]1C(=O)N[C@H](C(=O)N[C@@H](CCCCN)C(=O)N[C@@H](CC(C)C)C(=O)N[C@@H](CCCCNC(=O)COCCOCCNC(=O)COCCOCCNC(=O)CC[C@H](NC(=O)CCCCCCCCCCCCCCCCC(=O)O)C(=O)O)C(=O)N[C@@H](CCC(N)=O)C(=O)N[C@H](C(=O)N[C@@H](CC(C)C)C(=O)N[C@@H](CC(C)C)C(=O)N[C@@H](CCCCN)C(=O)N[C@@H](CCC(N)=O)C(=O)N[C@@H](CCC(=O)O)C(=O)N[C@@H](CCCNC(=N)N)C(=O)N[C@@H](CCC(N)=O)C(=O)N[C@@H](CCCCN)C(=O)N[C@@H](CCCCN)C(=O)N[C@@H](CCC(N)=O)C(=O)N[C@@H](CCCNC(=N)N)C(=O)N[C@@H](CCC(=O)O)C(=O)N[C@@H](CCC(N)=O)C(=O)N[C@@H](C)C(=O)N[C@@H](CCC(=O)O)C(=O)N[C@@H](CCCCN)C(=O)N[C@@H](CC(N)=O)C(=O)N[C@@H](CCCCN)C(=O)N[C@@H](CCC(N)=O)C(=O)N[C@H](C(=O)N[C@@H](CC(C)C)C(=O)N[C@@H](CCC(=O)O)C(=O)N[C@@H](CCC(N)=O)C(=O)N[C@H](C(N)=O)C(C)C)[C@@H](C)CC)[C@@H](C)CC)[C@@H](C)CC)C(C)C)C(C)C

What follows are binders tested against T1, CRF1R receptor (assay: cell-based or functional assay).

Binder	EC50	Emax (% I)
B1	> 250 nM	24%
B2	> 250 nM	24%
B3	–	11%
B4	–	0%
B5	100 nM	22%

These binders were tested against human corticotropin-releasing factor 2a (CRF2a receptor) (human), Q13324 (assay: cell-based or functional assay).
Chain of human corticotropin-releasing factor 2a (CRF2a receptor) (human), Q13324 (Q13324 20-411): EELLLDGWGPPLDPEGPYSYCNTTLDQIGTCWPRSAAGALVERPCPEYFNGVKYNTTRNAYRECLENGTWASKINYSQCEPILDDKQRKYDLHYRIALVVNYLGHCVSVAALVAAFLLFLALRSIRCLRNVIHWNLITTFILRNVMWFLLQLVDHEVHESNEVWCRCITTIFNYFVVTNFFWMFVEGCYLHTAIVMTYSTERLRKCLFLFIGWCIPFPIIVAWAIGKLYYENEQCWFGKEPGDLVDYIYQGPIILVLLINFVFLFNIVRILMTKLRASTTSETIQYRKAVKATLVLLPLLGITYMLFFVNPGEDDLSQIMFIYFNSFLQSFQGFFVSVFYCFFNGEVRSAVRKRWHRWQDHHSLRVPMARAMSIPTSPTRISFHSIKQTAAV

Binder	EC50 [nM] (cAMP)
Ac-IVLSLD[dV]PIKLK([γGlu-C18 diacid])KILLEQEKQKKQREQAETN[Thp″]QILAQV-NH2 (not fully specified; reading uncertain)	0.16 nM
B6	0.25 nM
